# Laboratory results as given in publication PMC2169300, “Signal-Regulated Pre-mRNA Occupancy by the General Splicing Factor U2AF”.
# Key:
# His-Sam68 [1] = biological target: T1, His-Sam68 (mouse, UniProt Q60749 1-443); assay: EMSA; dose-dependent; EMSA as described in cited ref [19]; buffer, salt, pH and temperature not given; details: protein: recombinant; tags: His (pQE-32); chain copies: 2
# His-Sam68 [2] = biological target: T1, His-Sam68; assay: EMSA; 25 and 50 ng protein; EMSA as described in cited ref [19]; buffer, salt, pH and temperature not given; details: protein: recombinant; tags: His (pQE-32); chain copies: 2
# T1 sequence (Q60749 whole entry): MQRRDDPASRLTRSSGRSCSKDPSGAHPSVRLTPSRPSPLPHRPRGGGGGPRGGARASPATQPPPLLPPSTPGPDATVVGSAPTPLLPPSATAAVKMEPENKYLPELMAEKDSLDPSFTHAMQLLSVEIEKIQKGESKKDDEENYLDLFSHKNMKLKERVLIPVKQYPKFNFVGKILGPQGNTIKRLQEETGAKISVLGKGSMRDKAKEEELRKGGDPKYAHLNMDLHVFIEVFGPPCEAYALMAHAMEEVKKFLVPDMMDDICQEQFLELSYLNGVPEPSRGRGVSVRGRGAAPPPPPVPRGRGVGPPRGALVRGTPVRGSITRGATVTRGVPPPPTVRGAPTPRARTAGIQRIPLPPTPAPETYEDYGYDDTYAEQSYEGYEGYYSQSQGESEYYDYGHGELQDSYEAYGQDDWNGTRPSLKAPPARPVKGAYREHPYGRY
Binder,binding result (His-Sam68 [1]),binding result (His-Sam68 [2])
GAAGAAGAGGAUUAUUAAAGACUAUUUGAUUAGA (ssRNA) [CD44 intronic Sam68 site RNA (wt)],binds,
AUAGACAGAAUCAGCACCAGUGCUCAUGGAGAAAAUUGGACC (ssRNA) [CD44 v5 exonic Sam68 site RNA],,binds
